By stoichiometry N is commonly meant a count of units in the complex or per binding partner.

The assay addresses full-length UvsX (UvsX_(1–391)) (bacteriophage T4) (UniProt P04529). Nature of the assay: non-reducing SDS PAGE.

Turning to “full-length UvsX (UvsX_(1–391)) (from UniProt P04529 1-391) (natural protein)”, the ratio of dimers and monomers under oxidizing conditions stood at 0.5; the stoichiometry N was 2.
